For this series, the system named is stable placental multi-protein complex SPC-1 (donor 1) (Homo sapiens (placenta, donor 1)). As to the kind of experiment: tryptophan fluorescence quenching titration (Scatchard). Particulars: 5' phosphate as printed (pT), 20 mM Tris-HCl pH 7.5, 150 mM NaCl, 0.3 mg/ml SPC, 25 C, excitation 283 nm, emission 338 nm.

As for TAGAAGATCAAA [12-mer ODN], the equilibrium dissociation constant (Kd) by setting is: (high-affinity site (Kd1)) 0.036 µM; (low-affinity site (Kd2)) 2.6 µM.

(Values after PMC4245193.)
